Target: Escherichia coli heat-labile enterotoxin holotoxin (human enterotoxigenic strain PE0415), nicked and reduced (E. coli (human enterotoxigenic strain PE0415)) (UniProt P43530)
Assay: ELISA; […] (1 ug/mL) […] (20 ug/mL, […]) for 1 h at 37 C; […]

For “protein disulfide isomerase, reduced (from UniProt P07237 18-508) (enzyme)”, the percent of A1 released from the holotoxin by PDI was 7%.
